According to the MegaScale stability set (Tsuboyama et al. 2023):

B1: HHH_rd2_0155 (parent)
chain: PPDDERKKAEKAARSGNEEKAREILERLGYSEDEARELAKRLR

Variants of: B1
Assay: folding stability dG (cDNA display proteolysis); higher = more stable
Conditions: PBS, room temperature

Folding stability dG [kJ/mol] of substitutions, site by site:
K11: W 8.96 | R 10.3 | C 9.58 | E 10.5 | Y 8.96 | L 9.85 | V 9.17 | F 8.42 | G 5.81 | H 9.69 | P 3.72 | T 8.82 | N 8.83 | A 10.2 | Q 9.86 | M 10.4 | D 9.95 | I 10.2 | S 8.25
A13: I 6.11 | S 4.72 | G 4.48 | T 4.79 | F 6.27 | K 3.52 | R 3.7 | P 3.97 | H 4.19 | W 7.6 | Q 3.79 | Y 5.67 | N 3 | D 4.09 | E 3.77 | V 5 | L 6.43 | M 5.65
R14: G 4.33 | I 7.7 | A 7.44 | H 6.68 | F 6.72 | D 4.22 | E 5.51
E10: M 9.75 | R 8.51 | L 9.97 | W 9.69 | Y 10.2 | K 7.44 | I 10 | H 7.33 | T 7.64 | A 9.63 | F 9.03 | Q 8.08 | N 5.4 | P 4.39 | D 5.1 | S 6.95 | G 6.63 | V 9.35
A12: I 6.75 | G 4.33 | V 6.23 | S 5.61 | N 4.37 | Y 10.9 | F 10.3 | W 10.1 | T 5.18 | P 3.87 | K 4.23 | R 4.93 | M 8.84 | Q 7.06 | H 7.94 | E 8.39 | D 3.85 | L 9.97
A9: G 4.72 | R 3.96 | H 4.92 | N 3.51 | P 4.74 | E 4.31 | K 3.38 | S 4.27 | V 5.41 | Y 6.15 | Q 3.7 | I 5.22 | W 6.41 | L 5.56 | D 3.43 | T 4.41 | M 4.38 | C 6.06 | F 5.33
E5: L 11.1 | K 6.06 | T 7.23 | M 9.76 | V 6.76 | P 7.55 | I 6.32 | R 6.92 | W 9.84 | S 7.52 | Q 8 | Y 7.59 | N 6.26
R6: S 5.45 | N 4.9 | G 4.64 | T 6.46 | Q 7.25 | P 4.14 | D 3.77 | A 6.83 | K 7.3 | M 13.6 | E 6.46 | W 14.2 | V 9.49 | I 11 | L 12.6 | F 14.1 | H 8.79 | Y 13.9
K8: R 8.99 | L 9.3 | S 7.7 | F 7.34 | E 9.45 | T 7.58 | G 5.69 | W 8.24 | Y 6.77 | H 8.12 | Q 9.14 | I 7.72 | A 9.14 | D 7.78 | P 4.79 | M 9.12 | V 7.39 | N 8.31
K7: P 4.85 | G 7.36 | T 9.09 | C 9.06 | M 9.23 | E 8.27 | N 7.76 | L 9.07 | W 8.99 | D 7.12 | I 8.69 | V 8.44 | Q 9.14 | R 9.42 | Y 8.01 | F 7.92 | A 8.78 | S 8.12 | H 7.76
